Laboratory results: paper PMC11144216

Molecular target: diffusible Aβ aggregates from postmortem frontal cortex of AD patients (human (endogenous in postmortem frontal cortex))
Assay: single-molecule pull-down (SiMPull); soaked-brain extracts (neat) of frontal cortex of APOE4/4 and APOE3/3 AD patients; captured by biotinylated 6E10; detected with Alexa-Fluor-647 6E10 and Alexa-Fluor-488 EPR19392; two-colour TIRF, colocalisation

percent of Aβ aggregates that are co-aggregates (colocalisation by number)	Substance
1%	apoE3 in frontal-cortex extracts of homozygous APOE3 AD patients (from UniProt P02649 19-317) (natural protein)
5%	apoE4 in frontal-cortex extracts of homozygous APOE4 AD patients (from UniProt P02649 19-317) (natural protein)
